From PMC12636033, “Chemical Engineering of Transcription Factors Uncovered Cell-Permeable μMax Modulators”

B1: dBr_Jan07_06649 (dsDNA)
DNA 1: TAAAGGTCACCAATAGTCATTGCAGACTGGGACAATGTCTGTGTTCCGTTGTCCGTGCTG
DNA 2: CAGCACGGACAACGGAACACAGACATTGTCCCAGTCTGCAATGACTATTGGTGACCTTTA
B2: dBr_Jan07_20880 (dsDNA)
DNA 1: GTCGGTTAACCTACTGTAACGTCGCTTTCGGTGTGTGTCTGTGTTCCGTTGTCCGTGCTG
DNA 2: CAGCACGGACAACGGAACACAGACACACACCGAAAGCGACGTTACAGTAGGTTAACCGAC
B3: dBr_Jan07_19753 (dsDNA)
DNA 1: ACACGTGTATGTAACATGCGAGCACTTCGTGCGCCTGTCTGTGTTCCGTTGTCCGTGCTG
DNA 2: CAGCACGGACAACGGAACACAGACAGGCGCACGAAGTGCTCGCATGTTACATACACGTGT
B4: dBr_Jan07_06986 (dsDNA)
DNA 1: CAATAGACGTTGCAATTTGGCCTGACAGCTACGGAAGTCTGTGTTCCGTTGTCCGTGCTG
DNA 2: CAGCACGGACAACGGAACACAGACTTCCGTAGCTGTCAGGCCAAATTGCAACGTCTATTG
B5: dBr_Jan07_08887 (dsDNA)
DNA 1: ATAGCCGCGTGGCATATGGTCCGGCGACCCCCTCTCGTCTGTGTTCCGTTGTCCGTGCTG
DNA 2: CAGCACGGACAACGGAACACAGACGAGAGGGGGTCGCCGGACCATATGCCACGCGGCTAT
B6: dBr_Jan07_04404 (dsDNA)
DNA 1: ATCCTCTTGAAACACTACAAGTTTCGTTAAAAAAAGGTCTGTGTTCCGTTGTCCGTGCTG
DNA 2: CAGCACGGACAACGGAACACAGACCTTTTTTTAACGAAACTTGTAGTGTTTCAAGAGGAT
B7: dBr_Jan07_39257 (dsDNA)
DNA 1: CAAACAGGCCGGTCTCTCGGTACAGTCACGTGTTCAGTCTGTGTTCCGTTGTCCGTGCTG
DNA 2: CAGCACGGACAACGGAACACAGACTGAACACGTGACTGTACCGAGAGACCGGCCTGTTTG
B8: dBr_Jan07_41473 (dsDNA)
DNA 1: TACTCGAAGCGTAAAAAAGACCGGGTAGGAAGCCAAGTCTGTGTTCCGTTGTCCGTGCTG
DNA 2: CAGCACGGACAACGGAACACAGACTTGGCTTCCTACCCGGTCTTTTTTACGCTTCGAGTA
B9: dBr_Jan07_34312 (dsDNA)
DNA 1: TTCAGACTGGCGCATGGTGCCCTCTGAACCCTGAATGTCTGTGTTCCGTTGTCCGTGCTG
DNA 2: CAGCACGGACAACGGAACACAGACATTCAGGGTTCAGAGGGCACCATGCGCCAGTCTGAA
B10: dBr_Jan07_16045 (dsDNA)
DNA 1: TACATATTGCCCTTTGGGTGAGTCACTCATTTTGGGGTCTGTGTTCCGTTGTCCGTGCTG
DNA 2: CAGCACGGACAACGGAACACAGACCCCAAAATGAGTGACTCACCCAAAGGGCAATATGTA
B11: dBr_Jan07_41703 (dsDNA)
DNA 1: CATTCATGTTGAGATAACACGTGGTTGGGCGTTAATGTCTGTGTTCCGTTGTCCGTGCTG
DNA 2: CAGCACGGACAACGGAACACAGACATTAACGCCCAACCACGTGTTATCTCAACATGAATG
B12: dBr_Jan07_34487 (dsDNA)
DNA 1: AACAGCCCACCCCTTATCAACGCGGCGCTTTCAGGCGTCTGTGTTCCGTTGTCCGTGCTG
DNA 2: CAGCACGGACAACGGAACACAGACGCCTGAAAGCGCCGCGTTGATAAGGGGTGGGCTGTT
B13: dBr_Jan07_30747 (dsDNA)
DNA 1: GGTACTACGATATAGGGATTACGCACCGCAAGGAGCGTCTGTGTTCCGTTGTCCGTGCTG
DNA 2: CAGCACGGACAACGGAACACAGACGCTCCTTGCGGTGCGTAATCCCTATATCGTAGTACC

target: WT Max (Homo sapiens, UniProt P61244-2 13-93, M65Nle, norleucine written as M; other non-natural residues written as X); experiment: PBM; 50-200 nM protein; PBS, 2% milk, BSA, salmon testes DNA, 0.02% Triton X-100; settings: chain copies: 2; label: surface-attached array probe
Sequence (P61244 other isoform, or with tags, fused parts or gaps M65Nle): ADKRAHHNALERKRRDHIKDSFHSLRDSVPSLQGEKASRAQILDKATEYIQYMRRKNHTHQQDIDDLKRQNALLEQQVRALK

| Binder | binding signal |
| --- | --- |
| B1 | -0.27 robust z of log adjusted intensity (ours), mean of two arrays |
| B2 | -0.14 robust z of log adjusted intensity (ours), mean of two arrays |
| B3 | 3.43 robust z of log adjusted intensity (ours), mean of two arrays |
| B4 | -0.17 robust z of log adjusted intensity (ours), mean of two arrays |
| B5 | 7 robust z of log adjusted intensity (ours), mean of two arrays |
| B6 | -0.11 robust z of log adjusted intensity (ours), mean of two arrays |
| B7 | 4.93 robust z of log adjusted intensity (ours), mean of two arrays |
| B8 | -0.29 robust z of log adjusted intensity (ours), mean of two arrays |
| B9 | -0.02 robust z of log adjusted intensity (ours), mean of two arrays |
| B10 | -0.17 robust z of log adjusted intensity (ours), mean of two arrays |
| B11 | 5.69 robust z of log adjusted intensity (ours), mean of two arrays |
| B12 | -0.28 robust z of log adjusted intensity (ours), mean of two arrays |
| B13 | -0.4 robust z of log adjusted intensity (ours), mean of two arrays |
